# Assay results reported in patent publication US20230374148A1, “BINDING MOLECULES THAT MULTIMERISE CD45” (UCB BIOPHARMA SRL, priority 2020, published 2023).
# B1: 4133-6294 BYbe: anti-CD45 BYbe (Fab-scFv): 4133 Fab HC-G4S linker-6294 scFv heavy chain paired with 4133 light chain (antibody)
# heavy: QEQLVESGGGLVQPEGSLTLTCTASGFSFSGNYYMCWVRQAPGKGLEWIGCLYTGSSGSTYYASWAKGRFTISKTSSTTVTLQMTSLTAADTATYFCARDLGYEIDGYGGLWGQGTLVTVSSGQPKAPSVFPLAPCCGDTPSSTVTLGCLVKGYLPEPVTVTWNSGTLTNGVRTFPSVRQSSGLYSLSSVVSVTSSSQPVTCNVAHPATNTKVDKTVAPSTCSKPGGGGSGGGGSEVQLVESGAELARPGASVKMSCKASGYTFTSYTMHWVKQRPGQCLEWIGYINPSSGYTEYNQKFKDKTTLTADKSSSTAYLQLSSLTSEDSAVYYCARVGDGFYPSWLAYWGQGTLVTVSSGGGGSGGGGSGGGGSGGGGSDIQMTQSPKFLLVSAGDRVTITCKASQSVRNDVAWYQQKPGQSPKLLIFYASKRYTGVPDRFTGSGYGTDFTFTISTVQAEDLAVYFCQQDYSSPTTFGCGTKLEIK
# light: AQVLTQTPSPVSAVVGGTVSISCQASQSVYNNNNLSWYQQKPGQPPKLLIYDASKLASGVPSRFKGSGSGTQFTLTISGVQCDDAATYYCLGGYYSSGWYFAFGGGTKVVVKRTPVAPTVLIFPPAADQVATGTVTIVCVANKYFPDVTVTWEVDGTTQTTGIENSKTPQNSADCTYNLSSTLTLTSTQYNSHKEYTCKVTQGTTSVVQSFNRGDC
# Columns and labels:
# Human PBMC = experiment: Apoptosis of PBMCs: reduction of PBMC cell subsets; assay type: cell-based; conditions: 24 hrs; for Bottom level of % subset cell reduction / Top level of % subset cell reduction: donor UCB Cone-802
# Method: Human PBMC derived from blood leukocyte platelet-apheresis cones (NHSBT Oxford) were banked as frozen aliquots. Prior to an assay being performed, 2 vials of frozen cells, each containing 5×10^7 cells in 1 ml, were thawed in a 37° C. water bath and then added to 50 ml complete media (RPMI 1640+2 mM GlutaMAX+1% Pen/Strep, all previous supplied by Invitrogen, +10% Fetal Bovine Serum (FBS), Sigma Aldrich). Cells were spun (500 g, 5 min, at RT) and re-suspended in 30 ml complete media to wash and spun again. Cells were resuspended in 10 ml complete media and then counted using a ChemoMetec NucleoCounter NC-3000. 10^5 cells per well in 100 μl were then added to each well of a Corning Costar 96-well, cell culture treated, U-shaped-bottom microplate (cat no. 07-200-95). The plate was rested in a 37° C., 5% CO2 incubator for 2 hrs. PBMCs from two donors, UCB-Cones 801 and 802 were used in this assay.
# Similarly, a 1500 nM stock of 4133-6294 BYbe in complete media was prepared. The microplate was incubated for 1 hr at 37° C., 5% CO2. Following the incubation, Fab-KD-Fab and BYbe reagents were then serially diluted in complete media 1 in 5, nine times to produce to form a 10-point dose curve.
# Following the incubation, the plate was spun at 500 g, 5 min, RT, the buffer was aspirated with a BioTek ELx405 microplate washer, and the cells were re-suspended in FACS buffer (PBS+1% bovine serum albumin (BSA)+0.1% NaN3+2 mM EDTA, Sigma Aldrich) to wash and then re-spun and buffer was aspirated to leave the cells in 20 μl residual media. 20 μl of cell-specific marker antibody cocktail solution was added to the wells and incubated for 1 hr at 4° C. The antibody cocktail is detailed in Table 4 below.
# Cells were analysed live using the Intellicyt iQue Screener PLUS. Live cell counts were extracted as metrics and graphical representations generated using Graphpad Prism version 8.1 (Graphpad). Asymmetric (five parameter) curve fitting was applied to derive maximal % cell reduction and EC50 values.
# [1] = tested on: CD34+ stem cells in PBMCs; experiment: Apoptosis of peripheral blood haematopoietic stem cells in PBMCs; assay type: cell-based, human; conditions: 24 hrs, 200-0.00632 nM
# Method: Human whole blood (K2EDTA tubes) was received from one donor (#PR20T386505, from Cambridge Bioscience, UK). PBMCs were isolated from whole blood using pre-filled LeucoSep tubes (Greiner). Whole blood was layered on to the LeucoSep filter and tubes spun (800 g, 15 min, slow acceleration and deceleration, at RT). The buffy coat was extracted and cells washed twice in sterile PBS. PBMC were resuspended in 50 ml complete media (RPMI 1640+2 mM GlutaMAX+1% Pen/Strep, all previously supplied by Invitrogen, +10% Fetal Bovine Serum (FBS), Sigma Aldrich). Cells were counted using a ChemoMetec NucleoCounter NC-3000. 1×10^6 cells per well in 80 μl were then added to each well of a Corning Costar 96-well, cell culture treated, U-shaped-bottom microplate (cat no. 07-200-95).
# In a Greiner 96-well non-binding microplate, Fab-X and Fab-Y combination 6294-X/4133-Y, was added to complete media to give a Fab-KD-Fab concentration of 1000 nM. Similarly, 1000 nM stocks of 4133-6294 BYbe and NegCtrl BYbe were prepared in complete media. The microplate was incubated for 1 hr at 37° C., 5% CO2. Following the incubation, Fab-KD-Fab and BYbe reagents were then serially diluted in complete media in a half log dilution series, 7 times to produce an 8-point dose curve. […]
# Cells were analysed using the Bio-Rad ZE5 Cell Analyzer. […]
molecule,measurement,setting,value
B1,almost maximal reductions in B cells,"Human PBMC; B cells in PBMC, stated for both reagents",87%
same,Bottom level of % subset cell reduction,Human PBMC; B cells,18.74%
same,Top level of % subset cell reduction,Human PBMC; B cells,87.09%
same,Bottom level of % subset cell reduction,Human PBMC; CD4+ Memory,24%
same,Top level of % subset cell reduction,Human PBMC; CD4+ Memory,99.76%
same,Bottom level of % subset cell reduction,Human PBMC; CD4+ Naive,18.53%
same,Top level of % subset cell reduction,Human PBMC; CD4+ Naive,99.04%
same,Bottom level of % subset cell reduction,Human PBMC; CD4+,20.22%
same,Top level of % subset cell reduction,Human PBMC; CD4+,99.2%
same,Bottom level of % subset cell reduction,Human PBMC; CD8+,0.543%
same,Top level of % subset cell reduction,Human PBMC; CD8+,98.36%
same,reductions in CD34+ stem cells,[1],53%
same,reductions in total lymphocytes,[1],98%
